Values quoted from earlier work as cited in PMC9598996.

Experiments:
Cys67 = Cys67 (UniProt position 567, ILIEICGHKAI); conditions: native (folded) enzyme, cysteines reduced
Cys95 = Cys95 (UniProt position 595, LTQIGCTLNFP); conditions: native (folded) enzyme, cysteines reduced

## HIV-1 protease (retropepsin) (Human immunodeficiency virus type 1)
Cys67
  pKa: about 6
Cys95
  pKa: about 6
